T1: recombinant human CD70 protein (Acrobiosystems: CDL-H82Q9) (human, UniProt P32970 39-193)
T1 construct: Bought from Acrobiosystems; The whole natural entry is named; also called human CD70His fusion protein; recombinant human CD70 antigen having a C-terminal human IgG Fc tag
T1 sequence (looked up): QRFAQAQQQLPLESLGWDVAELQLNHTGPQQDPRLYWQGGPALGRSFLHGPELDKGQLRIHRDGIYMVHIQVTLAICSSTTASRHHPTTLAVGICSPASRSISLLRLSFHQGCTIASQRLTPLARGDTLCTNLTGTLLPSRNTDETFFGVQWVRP

B1: CD70KO-CAR-7D (receptor)
chimeric antigen receptor chain: EVQLVESGGGLVQAGGSLRLSCAASGFTFDDYAIGWFRQAPGKEQEGVSCIRRSDGSTWYANSVKGRFTISNDNAKNTVYLQMNSLKPEDTAVYYCAVDRYGQSWHEGRGALDAWGQGTLVTVSSTTTPAPRPPTPAPTIASQPLSLRPEACRPAAGGAVHTRGLDFACDIYIWAPLAGTCGVLLLSLVITLYCKRGRKKLLYIFKQPFMRPVQTTQEEDGCSCRFPEEEEGGCELRVKFSRSADAPAYKQGQNQLYNELNLGRREEYDVLDKRRGRDPEMGGKPRRKNPQEGLYNELQKDKMAEAYSEIGMKGERRRGKGHDGLYQGLSTATKDTYDALHMQALPPR
notes: The sheet names the CD70-knockout T cells that carry CD70-CAR-7D; also called CD70-CAR-7D
B2: CD70KO-CAR-1G (receptor)
chimeric antigen receptor chain: QLQLVESGGGLVQLGGSLTLSCTASGIIFNSDYVGWYRQAPGSDRELVALTSNMRTNYADSVEGRFTISRDNAKNTVYLQMNSLKPEDTAVYYCNVNRMTSYGPRDYWGQGTQVTVSSTTTPAPRPPTPAPTIASQPLSLRPEACRPAAGGAVHTRGLDFACDIYIWAPLAGTCGVLLLSLVITLYCKRGRKKLLYIFKQPFMRPVQTTQEEDGCSCRFPEEEEGGCELRVKFSRSADAPAYKQGQNQLYNELNLGRREEYDVLDKRRGRDPEMGGKPRRKNPQEGLYNELQKDKMAEAYSEIGMKGERRRGKGHDGLYQGLSTATKDTYDALHMQALPPR
notes: The sheet names the CD70-knockout T cells that carry CD70-CAR-1G; also called CD70-CAR-1G
B3: CD70KO-CAR-L1 (receptor)
chimeric antigen receptor chain: EVQVVESGGGLVQAGGSLRLSCAASGRTFSSYAMGWVRQAPGKDQEFVAAINWSDGSTYYADSVKGRFTIARDNAKNTAFLQMNSLKPEDTAVYYCAAGCCGVADAPLNALDAWGQGTLVTVSSTTTPAPRPPTPAPTIASQPLSLRPEACRPAAGGAVHTRGLDFACDIYIWAPLAGTCGVLLLSLVITLYCKRGRKKLLYIFKQPFMRPVQTTQEEDGCSCRFPEEEEGGCELRVKFSRSADAPAYKQGQNQLYNELNLGRREEYDVLDKRRGRDPEMGGKPRRKNPQEGLYNELQKDKMAEAYSEIGMKGERRRGKGHDGLYQGLSTATKDTYDALHMQALPPR
notes: The sheet names the CD70-knockout T cells that carry CD70-CAR-L1; also called CD70-CAR-L1
B4: CD70KO-CAR-L2 (receptor)
chimeric antigen receptor chain: EVQLVESGGGLVQAGGSLRLSCAASGFTVDDYVIGWFRQAPGKEHEGVSCISSNDGSTWYADSVKGRFTISSDNAKNTMYLQMNSLKPEDTAVYYCAAKYAPYGLEYWEGGMDYWGKGTLVTVSSTTTPAPRPPTPAPTIASQPLSLRPEACRPAAGGAVHTRGLDFACDIYIWAPLAGTCGVLLLSLVITLYCKRGRKKLLYIFKQPFMRPVQTTQEEDGCSCRFPEEEEGGCELRVKFSRSADAPAYKQGQNQLYNELNLGRREEYDVLDKRRGRDPEMGGKPRRKNPQEGLYNELQKDKMAEAYSEIGMKGERRRGKGHDGLYQGLSTATKDTYDALHMQALPPR
notes: The sheet names the CD70-knockout T cells that carry CD70-CAR-L2; also called CD70-CAR-L2
B5: CD70KO-CAR-5H (receptor)
chimeric antigen receptor chain: EVQLVESGGGMVQAGGSLRLSCAAPGKIFSFYFMGWYRQAPGKQRELVALITGDGRTNYADSVEGRFTISRDNAKNTVYLQMNSLKPEDTAVYYCYADVFARAGRDEYWGQGTQVSVSSTTTPAPRPPTPAPTIASQPLSLRPEACRPAAGGAVHTRGLDFACDIYIWAPLAGTCGVLLLSLVITLYCKRGRKKLLYIFKQPFMRPVQTTQEEDGCSCRFPEEEEGGCELRVKFSRSADAPAYKQGQNQLYNELNLGRREEYDVLDKRRGRDPEMGGKPRRKNPQEGLYNELQKDKMAEAYSEIGMKGERRRGKGHDGLYQGLSTATKDTYDALHMQALPPR
notes: The sheet names the CD70-knockout T cells that carry CD70-CAR-5H; also called CD70-CAR-5H
B6: CD70KO-CAR-5A (receptor)
chimeric antigen receptor chain: EVQLVESGGGLVQAGGSLRLSCAASESIFNNYVMAWYRQPPGKQREAVAQISTDGSAYYQDRVKGRFTISRDNAKNLVNLQMSSLKPEDTAVYYCTAGLQYWGQGTQVTVSSTTTPAPRPPTPAPTIASQPLSLRPEACRPAAGGAVHTRGLDFACDIYIWAPLAGTCGVLLLSLVITLYCKRGRKKLLYIFKQPFMRPVQTTQEEDGCSCRFPEEEEGGCELRVKFSRSADAPAYKQGQNQLYNELNLGRREEYDVLDKRRGRDPEMGGKPRRKNPQEGLYNELQKDKMAEAYSEIGMKGERRRGKGHDGLYQGLSTATKDTYDALHMQALPPR
notes: The sheet names the CD70-knockout T cells that carry CD70-CAR-5A; also called CD70-CAR-5A
B7: CD70KO-CAR-3H (receptor)
chimeric antigen receptor chain: QLQLVESGGGLVQPGGSLRLSCAASGNILRFNAVGWYRQAPGKQRDLVAAMAGARTNYADSVEGRFTISGNNANNTVYLQMNSLKPEDTGVYYCGADRVYGPPYEYGGRGTQVTVLSTTTPAPRPPTPAPTIASQPLSLRPEACRPAAGGAVHTRGLDFACDIYIWAPLAGTCGVLLLSLVITLYCKRGRKKLLYIFKQPFMRPVQTTQEEDGCSCRFPEEEEGGCELRVKFSRSADAPAYKQGQNQLYNELNLGRREEYDVLDKRRGRDPEMGGKPRRKNPQEGLYNELQKDKMAEAYSEIGMKGERRRGKGHDGLYQGLSTATKDTYDALHMQALPPR
notes: The sheet names the CD70-knockout T cells that carry CD70-CAR-3H; also called CD70-CAR-3H
B8: CD70KO-CAR-5B (receptor)
chimeric antigen receptor chain: QVQLVESGGGLVQAGGSLRLSCAASGFTFDDYAIGWFRQAPGKEPEGVSCFRSSDGNIYYSDSVRGRFTISSDNAKNTVYLQMNRLKPEDTAVYYCAAYSVLLRPWVLCEGSYDYWGQGTQVTVSSTTTPAPRPPTPAPTIASQPLSLRPEACRPAAGGAVHTRGLDFACDIYIWAPLAGTCGVLLLSLVITLYCKRGRKKLLYIFKQPFMRPVQTTQEEDGCSCRFPEEEEGGCELRVKFSRSADAPAYKQGQNQLYNELNLGRREEYDVLDKRRGRDPEMGGKPRRKNPQEGLYNELQKDKMAEAYSEIGMKGERRRGKGHDGLYQGLSTATKDTYDALHMQALPPR
notes: The sheet names the CD70-knockout T cells that carry CD70-CAR-5B; also called CD70-CAR-5B
B9: CD70KO-CAR-1E (receptor)
chimeric antigen receptor chain: EVQVVESGGGLVQAGGSLRLSCAASGFAFDDYAIGWFRQAPGKEQERVSCMSSSDGSTYYADSVKGRFTISSDNAKNTVYLQMNSLKPEDTAVYYCAAGVNYYREDGCPGALDYWGQGTQVTVSSTTTPAPRPPTPAPTIASQPLSLRPEACRPAAGGAVHTRGLDFACDIYIWAPLAGTCGVLLLSLVITLYCKRGRKKLLYIFKQPFMRPVQTTQEEDGCSCRFPEEEEGGCELRVKFSRSADAPAYKQGQNQLYNELNLGRREEYDVLDKRRGRDPEMGGKPRRKNPQEGLYNELQKDKMAEAYSEIGMKGERRRGKGHDGLYQGLSTATKDTYDALHMQALPPR
notes: The sheet names the CD70-knockout T cells that carry CD70-CAR-1E; also called CD70-CAR-1E

Molecular target: T1, recombinant human CD70 protein …
Assay: flow cytometry: CAR on CD70-knockout T cells stained with biotinylated human CD70 protein (100 µg/ml) and PE-Streptavidin
Protocol: The expression of the CAR targeting CD70 prepared in example 5 in T cells in each group was detected by fluorescence antibody staining and flow cytometry. The specific steps were as follows: CAR-T cells targeting CD70 with lentivirus infection for 48 h, T cells without lentivirus infection and T-KO cells without lentivirus infection were respectively collected by centrifugation; biotinylated human CD70 protein (100 μg/ml) (Acrobiosystems: CDL-H82Q9) was added; and the mixture was incubated at 4° C. in the dark for 30 min, and then washed once with PBS after the incubation. After resuspending in an appropriate volume of PBS, a second antibody PE-Streptavidin (BD Biosciences: 554061) was added to the cells, and the mixture was incubated at 4° C. in the dark for 20 min, washed once with PBS and then resuspended in an appropriate volume of PBS. Finally, the expression efficiency of the CAR targeting CD70 on the surface of the T cells in which CD70 was knocked out was detected using a flow cytometer.

POS (% of cells in the CD70-PE positive gate) | Binder
78.4% | B1
57.5% | B2
82.5% | B3
62.6% | B4
58.9% | B5
74.9% | B6
70.8% | B7
57.8% | B8
63.9% | B9

Source: patent US20240024475A1 (CURE GENETICS, published 2024)
